What was measured:
cGAS (human) = assay: EMSA; details: 5 mM Mg2+, 20 mM Tris-HCl pH 7.6, 60 mM NaCl, 5 mM MgCl2, 10 ul, 30 min on ice, 80 nM (145/185) or 10 nM (2450/oligo) substrate, 1.5% agarose, 0.2x TBE
[1] = molecular target: 145-nucleosome ("601" nucleosome core particle: 145 bp Widom 601 DNA with recombinant histone octamer)
[2] = molecular target: 185-nucleosome (185 bp dsDNA, Widom 601 extended by 20 bp on both ends, with recombinant histone octamer)
[3] = molecular target: 145-nucleosome ("601" nucleosome core particle: 145 bp Widom 601 DNA with recombinant histone octamer); assay: native gel or EMSA; FAM-labelled nucleosome (0.8 pmol; oligonucleosomes 0.1 pmol) mixed with different amounts of cGAS in 20 mM Tris-HCl pH 7.6, 60 mM NaCl, 5 mM MgCl2, total volume 10 ul; on ice 30 min; 1.5% agarose gel, 0.2x TBE; Kd from percent bound nucleosome against cGAS concentration
[4] = molecular target: 185-nucleosome (185 bp dsDNA, Widom 601 extended by 20 bp on both ends, with recombinant histone octamer); assay: as above
[5] = molecular target: Oligonucleosomes (2,450 bp dsDNA reconstituted with recombinant histone octamers); assay: as above

2,450-dsDNA
Kd (cGAS (human)): 68 nM

145-dsDNA
Kd (cGAS (human)): 350 nM

145-nucleosome
Kd (cGAS (human)): 67 nM

145-tailless nucleosome
Kd (cGAS (human); tailless histones: H4 del1-20, H3 del1-37, H2A del1-15, H2B del1-31): 79 nM

185-dsDNA
Kd (cGAS (human)): 394 nM

185-nucleosome
Kd (cGAS (human)): 172 nM

Oligonucleosomes
Kd (cGAS (human)): 66 nM

human cGAS (cGMP-AMP synthase) (from UniProt Q8N884 1-522) (enzyme)
amount of cGAMP after 3 h incubation with cGAS, ATP and GTP (UPLC-MS/MS), against that induced by dsDNA (% of that induced by dsDNA) [1]: 15 | initial velocity of cGAMP generation in vitro (UPLC-MS/MS; 2 uM cGAS, ATP, GTP, 37 °C), against that induced by 145-dsDNA (ratio to 145-dsDNA) [1]: 0.1 | amount of cGAMP after 3 h incubation with cGAS, ATP and GTP (UPLC-MS/MS), against that induced by dsDNA (% of that induced by dsDNA) [2]: 15 | Kd [3]: 67 nM | Kd [4]: 172 nM | Kd [5]: 66 nM

Reference: paper PMC7505961
